In patent publication US20030044958A1 (ICOS, published 2003):

How the values were obtained:
ICAM-1/Fc = ICAM-1/Fc (UniProt P05362); experiment: cell-based or functional assay
VCAM-1/Fc = VCAM-1/Fc (UniProt P19320); experiment: cell-based or functional assay
[1] = target: T1, His3E9-tagged β2 integrin cytoplasmic tail protein (UniProt P05107 724-769, not fully specified); experiment: competition binding assay, competitor at 0.001 to 4 µM against iodinated IRP-1 on immobilized β2 C-tail
T1 construct: domain: cytoplasmic tail; Expressed in E. coli (pET15b) or Saccharomyces; immobilized on Scintistrip plates; also called β2 C-tail; β2 integrin C-tail; not shown: His3E9 tag
T1 chain (looked up): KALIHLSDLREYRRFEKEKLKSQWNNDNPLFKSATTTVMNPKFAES
Protocol: (§1) The integrin C-tails were immobilized onto 96-well microtiter Scintistrip™ (Wallac) plates at concentrations between […] in volumes of 50-100 μl bicarbonate, pH 9.6, per well and were incubated at 4° C. overnight. Plates were dried and blocked in 350 μl/well sterile-filtered 1-2% Bovine Serum Albumin (BSA) dissolved in binding assay buffer and were incubated at room temperature for 1-2 hours. The wells were washed 3 times in binding assay buffer and dried just prior to addition of IRPs.
The binding assay format was either a competition/inhibition binding assay or a saturation binding assay. In the competition binding assay, radiolabeled IRPs were diluted to 25-100 nM in binding assay buffer with one potential modulator of binding (unlabelled IRPs, soluble C-tails or non-specific control polypeptides such as BSA). The assay was initiated with addition of 100 μl labeled IRPs/potential modulator solution to the blocked Scintistrip® wells (50,000-200,000 cpm/well), then incubated one hour at room temperature (22-24° C.) and stopped by rapidly washing in binding assay buffer three to five times. The saturation binding assays were performed similarly, except that a constant 1:20 ratio of radiolabeled:unlabeled IRPs were tested over a total concentration range of 0.01-30 μM. The plates were dried and scintillation was measured on a Wallac Model 1450 liquid scintillation counter after the detectors were normalized. Interwell crosstalk was corrected for with a test Scintistrip™ plate, containing in the G11, 100 μl of 25-100 nM radiolabeled IRP captured by anti-IRP monoclonal antibody 200A coated in the well at 20 μg/ml in bicarbonate buffer. The incubation times and conditions for the test plate were identical to the binding assay above.

[2] = target: T2, Bovine Serum Albumin (BSA) (bovine, UniProt P02769 25-607); experiment: radiolabelled IRP-1 on BSA-blocked Scintistrip wells
T2 construct: also called control peptide
Protocol: as §1
The binding assay format was either a competition/inhibition binding assay or a saturation binding assay. In the competition binding assay, radiolabeled IRPs were diluted to 25-100 nM in binding assay buffer with one potential modulator of binding (unlabelled IRPs, soluble C-tails or non-specific control polypeptides such as BSA). […] The plates were dried and scintillation was measured on a Wallac Model 1450 liquid scintillation counter after the detectors were normalized. […]
Binding was measured as counts of radiolabeled IRPs found in C-tail-coated wells above counts found in BSA-coated wells. Specific binding was assessed as counts found in C-tail-coated wells which were reduced with added unlabelled IRPs or soluble C-tails.

Sequence of ICAM-1/Fc (P05362 28-480 limits assumed): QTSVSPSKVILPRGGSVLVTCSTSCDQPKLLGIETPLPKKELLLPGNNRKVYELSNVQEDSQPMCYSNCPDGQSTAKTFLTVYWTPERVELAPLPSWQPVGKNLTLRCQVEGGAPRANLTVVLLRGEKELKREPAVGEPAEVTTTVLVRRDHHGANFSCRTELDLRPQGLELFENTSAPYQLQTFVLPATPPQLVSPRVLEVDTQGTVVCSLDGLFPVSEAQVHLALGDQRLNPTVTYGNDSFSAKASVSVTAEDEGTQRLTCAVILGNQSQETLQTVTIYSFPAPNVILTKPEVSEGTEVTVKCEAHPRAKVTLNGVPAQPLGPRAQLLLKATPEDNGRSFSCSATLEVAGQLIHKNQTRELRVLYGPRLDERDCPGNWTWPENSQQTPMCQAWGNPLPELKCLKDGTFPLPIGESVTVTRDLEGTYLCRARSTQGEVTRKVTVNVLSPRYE
Sequence of VCAM-1/Fc (P19320 25-698 limits assumed): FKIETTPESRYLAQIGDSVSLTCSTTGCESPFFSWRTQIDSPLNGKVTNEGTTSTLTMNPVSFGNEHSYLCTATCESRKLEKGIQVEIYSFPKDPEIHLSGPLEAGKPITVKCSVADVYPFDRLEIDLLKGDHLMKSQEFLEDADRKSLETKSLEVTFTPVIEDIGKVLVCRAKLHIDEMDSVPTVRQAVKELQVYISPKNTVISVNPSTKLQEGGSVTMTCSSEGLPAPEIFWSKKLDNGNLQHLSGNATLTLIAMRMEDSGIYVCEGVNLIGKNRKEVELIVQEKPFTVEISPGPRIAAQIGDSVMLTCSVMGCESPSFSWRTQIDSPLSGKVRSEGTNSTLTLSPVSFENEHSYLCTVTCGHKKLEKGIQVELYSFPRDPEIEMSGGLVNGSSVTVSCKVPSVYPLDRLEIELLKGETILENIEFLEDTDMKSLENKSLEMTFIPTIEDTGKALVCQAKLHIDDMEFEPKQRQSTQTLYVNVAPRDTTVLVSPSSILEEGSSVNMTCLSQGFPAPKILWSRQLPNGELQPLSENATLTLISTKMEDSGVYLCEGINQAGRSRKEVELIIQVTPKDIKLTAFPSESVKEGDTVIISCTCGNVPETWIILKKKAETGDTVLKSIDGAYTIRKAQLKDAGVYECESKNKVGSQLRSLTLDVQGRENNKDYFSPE
T2 sequence (P02769 25-607 limits assumed): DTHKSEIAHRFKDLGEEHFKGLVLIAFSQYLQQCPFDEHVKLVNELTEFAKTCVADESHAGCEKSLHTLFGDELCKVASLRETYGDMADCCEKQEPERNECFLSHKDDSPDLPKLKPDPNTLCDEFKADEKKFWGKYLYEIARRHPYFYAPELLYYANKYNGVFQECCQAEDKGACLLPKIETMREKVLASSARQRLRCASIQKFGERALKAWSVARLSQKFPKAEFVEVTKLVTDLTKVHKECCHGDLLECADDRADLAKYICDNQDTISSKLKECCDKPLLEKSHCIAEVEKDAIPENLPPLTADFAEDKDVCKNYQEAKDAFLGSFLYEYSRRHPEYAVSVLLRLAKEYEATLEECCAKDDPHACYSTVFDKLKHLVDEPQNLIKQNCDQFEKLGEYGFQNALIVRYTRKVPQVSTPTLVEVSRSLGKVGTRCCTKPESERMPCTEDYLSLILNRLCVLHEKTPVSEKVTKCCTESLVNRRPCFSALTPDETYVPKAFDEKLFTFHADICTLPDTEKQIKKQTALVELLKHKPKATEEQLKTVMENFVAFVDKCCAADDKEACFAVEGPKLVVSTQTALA

In the case of “LFA-1 (CD11a/CD18) on JY, JY-8 or transfected COS cells (from UniProt P20701 26-1170; P05107 23-769) (receptor)”, the decrease in ICAM-1 adhesion of COS cells co-transfected with CD11a/CD18 and 3′HA B2-1, 5′HA B2-1, B2-1 PH or IRP-1 PH, 72 hours post-transfection, against vector control (ICAM-1/Fc) is reported as 50%, the decrease in static adhesion to ICAM-1 of JY-8 transfectants overexpressing IRP-1 against GFP control (basal and IL-8 stimulated) (ICAM-1/Fc) is reported as 40 to 50% and the highest flow rate at which ICAM-1 binding of JYIRP-2 cells was detected after static binding (ICAM-1/Fc) is reported as < 7.5 dynes/cm^2. The static adhesion of JY-8 cells expressing only GFP (control) to immobilized ICAM-1, IL-8 against basal level (ICAM-1/Fc) was 3 to 4 fold, the static adhesion of JY-8 cells to ICAM-1, PMA against basal level (ICAM-1/Fc) was > 4 fold and the static adhesion to ICAM-1 (basal or IL-8 induced) of JY-8 transfectants overexpressing IRP-2 against GFP transfectants (ICAM-1/Fc) was 20%.

With “integrin α4β7 on JY or JY-8 cells (from UniProt P13612 34-1032; P26010 20-798) (receptor)” the IL-8 stimulated adhesion to VCAM-1 of JY-8 transfectants overexpressing B2-1 (VCAM-1/Fc) was 50%, the static adhesion of JY-8 cells expressing only GFP (control) to immobilized VCAM-1, IL-8 against basal level (VCAM-1/Fc) was 2 fold and the static adhesion of JY-8 cells to VCAM-1, PMA against basal level (VCAM-1/Fc) was > 4 fold. For the same molecule, the static adhesion to VCAM-1 (IL-8 induced) of JY-8 transfectants overexpressing IRP-2 against GFP transfectants (VCAM-1/Fc) was 20% and the static adhesion to VCAM-1 of JY-8 transfectants overexpressing IRP-1, IL-8 stimulated (VCAM-1/Fc) was 40%.

B1: His-tagged B2-1 (HisB2-1), expressed in E. coli (other, human, UniProt Q15438 1-398, looked up)
chain: MEEDDSYVPSDLTAEERQELENIRRRKQELLADIQRLKDEIAEVANEIENLGSTEERKNMQRNKQVAMGRKKFNMDPKKGIQFLIENDLLKNTCEDIAQFLYKGEGLNKTAIGDYLGERDEFNIQVLHAFVELHEFTDLNLVQALRQFLWSFRLPGEAQKIDRMMEAFAQRYCQCNNGVFQSTDTCYVLSFAIIMLNTSLHNPNVKDKPTVERFIAMNRGINDGGDLPEELLRNLYESIKNEPFKIPEDDGNDLTHTFFNPDREGWLLKLGGGRVKTWKRRWFILTDNCLYYFEYTTDKEPRGIIPLENLSIREVEDSKKPNCFELYIPDNKDQVIKACKTEADGRVVEGNHTVYRISAPTPEEKEEWIKCIKAAISRDPFYEMLAARKKKVSSTKRH
notes: mature; also called cytohesin-1; not shown: N-terminal histidine tag encoded by pET15b
With B1 the “percent decrease of iodinated IRP-1 binding” value (“percent decrease” for short) [1] was ~75%.

B2: His-tagged IRP-1 (HisIRP-1), expressed in E. coli (other)
chain: MEDGVYEPPDLTPEERMELENIRRRKQELLVEIQRLREELSEAMSEVEGLEANEGSKTLQRNRKMAMGRKKFNMDPKKGIQFLVENELLQNTPEEIARFLYKGEGLNKTAIGDYLGEREELNLAVLHAFVDLHEFTDLNLVQALRQFLWSFRLPGEAQKIDRMMEAFAQRYCLCNPGVFQSTDTCYVLSFAVIMLNTSLHNPNVRDKPGLERFVAMNRGINEGGDLPEELLRNLYDSIRNEPFKIPEDDGNDLTHTFFNPDREGWLLKLGGRVKTWKRRWFILTDNCLYYFEYTTDKEPRGIIPLENLSIREVDDPRKPNCFELYIPNNKGQLIKACKTEADGRVVEGNHMVYRISAPTQEEKDEWIKSIQAAVSVDPFYEMLAARKKRISVKKKQEQP
notes: also called unlabelled IRP-1; clone S3 protein; not shown: N-terminal histidine tag encoded by pET15b
In the case of B2, the “percent decrease” value [1] is reported as ~75%.

B3: iodinated IRP-1 (125I-labelled His-tagged IRP-1) (other)
chain: B2 chain
modifications: radiolabeled with 125I (Iodobead or lactoperoxidase/hydrogen peroxide method); positions not given
notes: also called radiolabeled IRP-1; not shown: His tag encoded by pET15b (non-kemptide-tagged)
B3: no binding [2].

B4: IRP-1 Sec7 domain (recombinant, soluble competitor) (other)
chain: KFNMDPKKGIQFLVENELLQNTPEEIARFLYKGEGLNKTAIGDYLGEREELNLAVLHAFVDLHEFTDLNLVQALRQFLWSFRLPGEAQKIDRMMEAFAQRYCLCNPGVFQSTDTCYVLSFAVIMLNTSLHNPNVRDKPGLERFVAMNRGINEGGDLPEELLRNLYDSIRNEPFKI
With B4 the “percent decrease” value [1] was ~75%.
